Reference: patent US20170173132A1 (IMMATICS BIOTECHNOLOGIES, published 2017)
Square brackets hold non-standard residues; d marks the D form. Ends that are not written are not given here. pT = C[C@@H](OP(=O)(O)O)[C@H](N)C(=O)O

What follows are binders tested against T1, HLA-A*02:01 (peptide-receptive MHC class I molecule, heavy chain with β2m light chain) (human) (assay: UV-ligand exchange, anti-β2m ELISA; grade of peptide exchange yield (≥10% = +; ≥20% = ++; ≥50 = +++; ≥75% = ++++)).
T1 construct: The UV-sensitive placeholder peptide is cleaved on irradiation and exchanged for the tested peptide
From the text: Candidate peptides for T cell based therapies according to the present invention were further tested for their MHC binding capacity (affinity). The individual peptide-MHC complexes were produced by UV-ligand exchange, where a UV-sensitive peptide is cleaved upon UV-irradiation, and exchanged with the peptide of interest as analyzed. Only peptide candidates that can effectively bind and stabilize the peptide-receptive MHC molecules prevent dissociation of the MHC complexes. To determine the yield of the exchange reaction, an ELISA was performed based on the detection of the light chain (β2m) of stabilized MHC complexes. The assay was performed as generally described in Rodenko et al. (Rodenko et al., 2006).
96 well MAXISorp plates (NUNC) were coated over night with 2 ug/ml streptavidin in PBS at room temperature, washed 4× and blocked for 1 h at 37° C. in 2% BSA containing blocking buffer. Refolded HLA-A*02:01/MLA-001 monomers served as standards, covering the range of 15-500 ng/ml. Peptide-MHC monomers of the UV-exchange reaction were diluted 100-fold in blocking buffer. Samples were incubated for 1 h at 37° C., washed four times, incubated with 2 ug/ml HRP conjugated anti-β2m for 1 h at 37° C., washed again and detected with TMB solution that is stopped with […]. Absorption was measured at 450 nm. Candidate peptides that show a high exchange yield (preferably higher than 50%, most preferred higher than 75%) are generally preferred for a generation and production of antibodies or fragments thereof, and/or T cell receptors or fragments thereof, as they show sufficient avidity to the MHC molecules and prevent dissociation of the MHC complexes.

Row | Binder | peptide exchange yield [%]
1 | FMSKLVPAI [peptide FMSKLVPAI] | 50 to 75
2 | ALNPVIYTV [peptide ALNPVIYTV] | 20 to 50
3 | SLFSVPFFL [peptide SLFSVPFFL] | ≥ 75
4 | SLADAVEKV [peptide SLADAVEKV] | 50 to 75
5 | ILTELPPGV [peptide ILTELPPGV] | 20 to 50
6 | ALTALQNYL [peptide ALTALQNYL] | 50 to 75
7 | TLLGLAVNV [peptide TLLGLAVNV] | ≥ 75
8 | SLLTEPALV [peptide SLLTEPALV] | 50 to 75
9 | SLNDQGYLL [peptide SLNDQGYLL] | 50 to 75
10 | GLVQSLTSI [peptide GLVQSLTSI] | ≥ 75
11 | FLDEEVKLI [peptide FLDEEVKLI] | 50 to 75
12 | FIIPTVATA [peptide FIIPTVATA] | ≥ 75
13 | ALEEQLHQV [peptide ALEEQLHQV] | 20 to 50
14 | ILFDVVVFL [peptide ILFDVVVFL] | 20 to 50
15 | YIDGLESRV [peptide YIDGLESRV] | 50 to 75
16 | FLVEHVLTL [peptide FLVEHVLTL] | ≥ 75
17 | SLAEPRVSV [peptide SLAEPRVSV] | 50 to 75
18 | GLLGFQAEA [peptide GLLGFQAEA] | ≥ 75
19 | YILLQSPQL [peptide YILLQSPQL] | 50 to 75
20 | FLSSEAANV [peptide FLSSEAANV] | 20 to 50

Row | Binder | peptide exchange yield [%]
21 | SMMGLLTNL [peptide SMMGLLTNL] | ≥ 75
22 | SLVEGEAVHLA [peptide SLVEGEAVHLA] | 20 to 50
23 | GLSYIYNTV [peptide GLSYIYNTV] | 20 to 50
24 | ALAGSSPQV [peptide ALAGSSPQV] | 50 to 75
25 | KLYEGIPVL [peptide KLYEGIPVL] | 20 to 50
26 | GLVATLQSL [peptide GLVATLQSL] | 50 to 75
27 | GLLPTSVSPRV [peptide GLLPTSVSPRV] | 20 to 50
28 | SLLSEIQAL [peptide SLLSEIQAL] | ≥ 75
29 | SLFPSLVVV [peptide SLFPSLVVV] | 50 to 75
30 | LLM[pT]VAGLKL [peptide LLMUVAGLKL] | ≥ 75
31 | SLAWDVPAA [peptide SLAWDVPAA] | 50 to 75
32 | ALEA[pT]QLYL [peptide ALEAUQLYL] | 50 to 75
33 | KQLELELEV [peptide KQLELELEV] | 50 to 75
34 | KMPEHISTV [peptide KMPEHISTV] | 50 to 75
35 | TIASSIEKA [peptide TIASSIEKA] | 20 to 50
36 | FSFPVSVGV [peptide FSFPVSVGV] | 50 to 75
37 | KAFPFYNTV [peptide KAFPFYNTV] | 20 to 50
38 | KLLDMELEM [peptide KLLDMELEM] | ≥ 75
39 | GLHSLPPEV [peptide GLHSLPPEV] | 50 to 75
